The values that follow come from article PMC3201810.

This experiment addresses Bacillus cereus ChbC (EIIC component of the diacetylchitobiose phosphotransferase system) (Bacillus cereus). Description: SEC-MALS. In general terms: Size exclusion chromatography separates by hydrodynamic size, large species first.

For orientation: stoichiometry N means the number of molecules, sites or subunits per partner or assembly. “Bacillus cereus ChbC (EIIC component of the diacetylchitobiose phosphotransferase system) (natural protein)” showed a stoichiometry N of 2.
